Test [1] concerns HIV-1 primary isolate 89.6 (dual X4/R5 virus). The test can be described thus: Neutralization assay, multiple rounds of replication on primary PBMC, isolate 89.6. Type of test: cell-based. Particulars: 90% decrease of viral titer. The method, then:
This assay that combines serial dilutions of c515H7 Mab or Maraviroc or combination of both with serial dilutions of virus, analyzes multiple rounds of infection on PBMC (peripheral blood mononuclear cells). Briefly, quadruplicate 25-μl aliquots of serial dilutions (twofold) of c515H7 Mabs or Maraviroc or combination of both were each incubated with 25 μl of serial dilutions of virus in prehydrated 96-well filter plates (1.25-μm pore size, Durapor Dv; Millipore, Molsheim, France). A control titration of the virus (25 μl of RPMI replacing the diluted c515H7 Mabs or Maraviroc) was performed on the same plate as the titrations in the presence of dilutions of the c515H7 Mabs or Maraviroc or combination of both. After 1 h at 37° C., 25 μl of PHA-stimulated PBMC at a concentration of 4×10^6 cells/ml (pool of PHA activated PBMC from five healthy donors) was added to achieve a 75-μl final culture volume of RPMI, 10% fetal calf serum (FCS), and 20 IU of interleukin-2 (IL-2) per ml (R&D System). After 24 h at 37° C., 100 μl of the same culture medium was added. Two washings (200 μl of RPMI each) were performed by filtration on day 4 to remove the c515H7 Mabs and Maraviroc, and 200 μl of fresh culture medium was added. On day 7, the presence of p24 in the culture supernatants was measured by ELISA and compared to that of the negative controls (cultures infected with dilutions of virus and maintained in the presence of 10^−6 M zidovudine [AZT]) to determine positive wells. […]
(§1) This assay that combines serial dilutions of hz515H7 Mab or Maraviroc or combination of both with serial dilutions of virus, analyzes multiple rounds of infection on PBMC (peripheral blood mononuclear cells). […] On day 7, the presence of p24 in the culture supernatants was measured by ELISA and compared to that of the negative controls (cultures infected with dilutions of virus and maintained in the presence of 10^−6 M zidovudine [AZT]) to determine positive wells. […]

For test [2], the system named is HIV-1 primary isolate UG93067 (dual X4/R5 virus). The test can be described thus: Neutralization assay, multiple rounds of replication on primary PBMC, isolate UG93067. The format is cell-based. The method, then:
as §1, with “c515H7” for “hz515H7”, “cells). Briefly, quadruplicate 25-μl aliquots of serial dilutions (twofold) of c515H7 Mabs or Maraviroc or combination of both were each incubated with 25 μl of serial dilutions of virus in prehydrated 96-well filter plates (1.25-μm pore size, Durapor Dv; Millipore, Molsheim, France).” for “cells).”
as §1

B1: c515H7: chimeric antibody 515H7: murine variable domains fused to human Ckappa and IgG1/IgG2/IgG4 constant domains; isotype tested not stated (antibody, V domains shown)
VH: EVNLVESGGGLVQPGGSLRLSCATSGFTFTDNYMSWVRQPPGKALEWLGFIRNKANGYTTDYSASVRGRFTISRDNSQSILYLQMNALRAEDSATYYCARDVGSNYFDYWGQGTTLTVSS
VL: DIVMSQSPSSLAVSAGEKVTMSCKSSQSLFNSRTRKNYLAWYQQKPGQSPKLLIYWASARDSGVPARFTGSGSETYFTLTISRVQAEDLAVYYCMQSFNLRTFGGGTKLEIK
The term IC90 denotes the point of the concentration-response curve where the effect stands at 90%. Take B1: the “IC90 of c515H7 with addition of Maraviroc” value in test [1] (Maraviroc at 2 μg/ml added) turned out to be 0.2 µg/mL. Moreover, in test [1] (single agent, multiple rounds, day 7 p24 ELISA), the IC90 amounted to 2 µg/mL. In test [2] (10 μg/ml of each, only the combination reached it), the “reduction of virus titer by combination of c515H7 and Maraviroc” value is on record as 90%. For the same molecule, the “inhibitory activity of the Mab compared with Maraviroc” value in test [2] (virus UG93067, PBMC) is recorded as “similar”.
